Source: patent US20240317880A1 (KLING BIOTHERAPEUTICS B V, published 2024)

Tests used:
[1] = target: T1, truncated 70 kDa form of E-cadherin (p70), endogenous, from DLD1 cells (human, UniProt P12830 463-882, Ser/Thr residues found to be single O-mannosylated (mass spectrometry of AT1636-precipitated p70)); test: immunoprecipitation from DLD1 lysate, western blot, densitometry
T1 construct: range 463-C-terminus; also called p70 E-cadherin; 70 kDa protein
T1 sequence (looked up): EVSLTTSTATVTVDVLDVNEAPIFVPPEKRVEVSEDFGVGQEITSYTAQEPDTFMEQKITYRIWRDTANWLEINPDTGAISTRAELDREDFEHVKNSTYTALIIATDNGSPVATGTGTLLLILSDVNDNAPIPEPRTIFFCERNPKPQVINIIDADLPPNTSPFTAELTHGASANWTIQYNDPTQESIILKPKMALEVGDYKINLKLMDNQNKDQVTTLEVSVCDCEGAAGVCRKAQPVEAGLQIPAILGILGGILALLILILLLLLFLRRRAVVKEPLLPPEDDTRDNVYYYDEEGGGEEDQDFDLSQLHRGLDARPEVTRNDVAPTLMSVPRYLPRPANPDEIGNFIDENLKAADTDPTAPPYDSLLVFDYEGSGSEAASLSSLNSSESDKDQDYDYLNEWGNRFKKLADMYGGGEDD
Procedure: The specific binding of AT1636 to p70 E-cadherin was confirmed by western blot. AT1636 reactivity was compared to the commercially available EP700Y (Abcam, rabbit antibody) and a mouse antibody specific for the cytoplasmic domain of E-cadherin (clone 36/E, BD Biosciences). […] The E-cadherin antibody immunoprecipitation was performed from DLD1 cells with equal amounts of lysate (10 mg) and antibodies (2,5 μg). Input (40 μg) and IP samples (all) were run on SDS-PAGE and transferred to PVDF membrane (Bio-Rad) for immunoblotting. Using the antibody binding the intracellular domain of E-cadherin as well as the EP700Y antibody, the full length (120 kDa) E-cadherin as well as the 70 kDa protein were immunoprecipitated, while AT1636 mainly immunoprecipitated the 70 kDa protein (FIG. 2b). Thus AT1636 preferentially binds p70 over full length E-cadherin as shown by the enrichment for p70 over full length E-cadherin. Upon densitometric quantification of the signals, we find a 7-fold enrichment of p70 over full length in the AT1636 IP, compared to the EP700Y IP.

[2] = target: T2, full length E-cadherin (about 120 kDa), on human cells or from their lysate (human, UniProt P12830 155-882, O-mannosylated in cells that express TMTC3, as the filing describes); test: flow cytometry on DLD1 cells with TMTC3 shRNA against scrambled shRNA control
T2 construct: whole, on cells; also called CDH1; CD324
T2 sequence (looked up): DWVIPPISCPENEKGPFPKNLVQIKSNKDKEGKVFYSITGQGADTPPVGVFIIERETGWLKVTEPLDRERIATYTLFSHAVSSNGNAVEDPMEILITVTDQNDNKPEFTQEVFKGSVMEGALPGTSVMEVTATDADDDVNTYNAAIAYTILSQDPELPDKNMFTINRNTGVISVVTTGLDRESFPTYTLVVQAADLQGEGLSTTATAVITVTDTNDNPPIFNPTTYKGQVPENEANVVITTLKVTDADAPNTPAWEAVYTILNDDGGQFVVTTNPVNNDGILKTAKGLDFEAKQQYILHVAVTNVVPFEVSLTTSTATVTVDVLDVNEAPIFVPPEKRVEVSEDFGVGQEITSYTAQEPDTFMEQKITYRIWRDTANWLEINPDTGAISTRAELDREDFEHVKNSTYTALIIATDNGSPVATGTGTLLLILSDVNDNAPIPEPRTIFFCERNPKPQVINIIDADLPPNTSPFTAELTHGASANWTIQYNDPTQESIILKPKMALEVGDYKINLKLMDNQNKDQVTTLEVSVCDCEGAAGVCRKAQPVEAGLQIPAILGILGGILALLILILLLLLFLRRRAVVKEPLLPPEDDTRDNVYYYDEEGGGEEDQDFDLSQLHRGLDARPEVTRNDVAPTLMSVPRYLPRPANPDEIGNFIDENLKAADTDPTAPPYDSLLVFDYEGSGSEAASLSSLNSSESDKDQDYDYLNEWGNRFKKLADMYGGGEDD

[3] = target: T3, mouse E-cadherin on CMT93 cells (mouse, UniProt P09803 157-884); test: flow cytometry on mouse CMT93 cells
T3 construct: whole, on cells
T3 sequence (looked up): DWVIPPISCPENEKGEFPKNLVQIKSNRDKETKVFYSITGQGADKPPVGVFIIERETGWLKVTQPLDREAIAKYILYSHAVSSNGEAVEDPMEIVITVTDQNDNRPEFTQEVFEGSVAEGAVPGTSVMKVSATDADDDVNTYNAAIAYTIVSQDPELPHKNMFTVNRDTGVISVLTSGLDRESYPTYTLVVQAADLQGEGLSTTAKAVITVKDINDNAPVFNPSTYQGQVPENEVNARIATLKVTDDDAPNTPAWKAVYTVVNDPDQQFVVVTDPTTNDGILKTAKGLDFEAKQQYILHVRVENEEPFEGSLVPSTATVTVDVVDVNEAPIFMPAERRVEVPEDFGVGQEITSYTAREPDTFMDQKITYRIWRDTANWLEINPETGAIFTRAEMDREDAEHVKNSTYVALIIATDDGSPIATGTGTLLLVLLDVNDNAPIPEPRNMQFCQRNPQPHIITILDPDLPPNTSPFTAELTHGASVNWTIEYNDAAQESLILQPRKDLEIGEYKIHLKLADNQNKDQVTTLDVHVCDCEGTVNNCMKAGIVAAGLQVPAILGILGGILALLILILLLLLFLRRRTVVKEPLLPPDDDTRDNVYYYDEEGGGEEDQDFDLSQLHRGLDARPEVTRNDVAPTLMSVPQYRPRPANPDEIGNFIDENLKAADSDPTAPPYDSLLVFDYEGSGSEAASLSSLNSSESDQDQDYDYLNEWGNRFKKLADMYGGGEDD

[4] = target: T4, recombinant soluble p70 E-cadherin mouse-Fc fusion protein (human, UniProt P12830 463-709); test: ELISA on captured p70 E-cadherin mFc
T4 construct: range 463-end of the extracellular domain; Made in Expi293 or CHO cells; also called 70 kDa; human p70 E-cadherin-mouseFc-biotin; not shown: FLAG tag on a mouse Fc-tail equipped with a sortase and HIS tag
T4 sequence (looked up): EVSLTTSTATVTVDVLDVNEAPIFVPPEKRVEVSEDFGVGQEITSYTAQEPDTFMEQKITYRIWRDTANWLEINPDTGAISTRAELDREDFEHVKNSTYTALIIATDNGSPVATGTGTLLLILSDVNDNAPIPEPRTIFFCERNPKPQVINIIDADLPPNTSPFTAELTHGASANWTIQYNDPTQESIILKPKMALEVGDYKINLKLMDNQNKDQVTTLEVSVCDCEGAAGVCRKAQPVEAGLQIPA
Procedure: (§1) TABLE 4 Calculation of the fold-increase in binding of the AT1636 variants compared to the parental AT1636 wild-type antibody to the Full-Length and p70 E-cadherin and the E-cadherin D3 mutated protein. EC₅₀ values were determined using Prism software. Fold increase in binding compared to AT1636 wild-type antibody
(§2) Recombinant E-cadherin mFc proteins were captured on 96-well plates (Costar) using goat-anti-mouse IgG Fcy antibodies (Jackson). […] Bound antibodies were visualized using a TMB substrate (Sigma) and the reaction was stopped with H₂SO₄(Merck) and quantified by OD450 measurement using an Envision plate reader (Perkin Elmer). As shown in FIG. 7b (two left panels), similar increased binding of AT1636-YN and -IYN antibody variants in comparison to AT1636 antibody was observed by ELISA to full length E-cadherin and p70. […] Here SC10.17, a humanized EC1 domain specific E-cadherin antibody binds full length E-cadherin but not the p70 truncated variant. Of note, all tested antibodies AT1636 variants, as well as AT1636 wild type, bind the truncated 70 kDa form of E-cadherin better than full length E-cadherin.

[5] = target: T5, recombinant soluble full length E-cadherin (without transmembrane and intracellular domains) mouse-Fc fusion … (human, UniProt P12830 155-709); test: ELISA on captured full length E-cadherin mFc
T5 construct: extracellular domain; Made in Expi293 or CHO cells; A C-tag-only version is also described; the ELISA used the mFc proteins; also called E-cadherin mFc; not shown: FLAG tag on a mouse Fc-tail equipped with a sortase and HIS tag
T5 sequence (looked up): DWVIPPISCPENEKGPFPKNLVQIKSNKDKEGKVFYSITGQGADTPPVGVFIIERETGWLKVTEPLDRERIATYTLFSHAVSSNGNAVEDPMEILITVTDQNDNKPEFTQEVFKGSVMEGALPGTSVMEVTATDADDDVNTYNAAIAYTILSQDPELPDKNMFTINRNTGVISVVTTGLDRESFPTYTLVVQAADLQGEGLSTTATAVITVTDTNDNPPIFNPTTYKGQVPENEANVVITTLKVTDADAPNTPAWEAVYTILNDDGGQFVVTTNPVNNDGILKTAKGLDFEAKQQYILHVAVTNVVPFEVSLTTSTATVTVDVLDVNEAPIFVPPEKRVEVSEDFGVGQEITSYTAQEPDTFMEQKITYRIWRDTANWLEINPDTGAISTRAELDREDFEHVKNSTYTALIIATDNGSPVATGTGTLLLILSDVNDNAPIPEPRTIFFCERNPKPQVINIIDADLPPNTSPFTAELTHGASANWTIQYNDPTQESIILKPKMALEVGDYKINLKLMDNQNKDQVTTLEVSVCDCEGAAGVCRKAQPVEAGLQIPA
Procedure: as §1, §2

B1: AT1636 (antibody, V domains shown)
VH: EVQLVESGGGLVKPGGSLRLSCAASGFTFSNAWMNWVRQAPGKGLEWVGRIKSKIDGGTTEYTTPVKGRFTISRDDSKDTVYLHMKRLKTEDTAVYYCTPGVGANDPYYFDRWGQGVLVTVSS
VL: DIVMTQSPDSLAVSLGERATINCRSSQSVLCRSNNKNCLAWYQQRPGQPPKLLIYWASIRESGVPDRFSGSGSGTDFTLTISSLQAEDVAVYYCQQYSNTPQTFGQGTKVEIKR
notes: The original 7G02 antibody is IgG3; also called AT1636 wild-type; AT1636-wt
[1]
  fold enrichment of p70 over full length E-cadherin in the IP, compared to the EP700Y IP: 7 fold
[2]
  fold reduction in binding after TMTC3 knock-down: > 3 fold

B2: AT1636-YN (antibody, human IgG1, V domains shown)
VH: EVQLVESGGGLVKPGGSLRLSCAASGFTFSYAWMNWVRQAPGKGLEWVGRIKSKIDGGTTEYTTPVKGRFTISRDDSKDTVYLHMKRLKTEDTAVYYCTPGVGANNPYYFDRWGQGVLVTVSS
VL: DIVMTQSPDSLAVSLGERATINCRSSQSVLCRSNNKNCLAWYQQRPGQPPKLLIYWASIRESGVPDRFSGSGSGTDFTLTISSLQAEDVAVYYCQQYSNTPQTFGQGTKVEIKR
notes: also called -NY; AT1636-NY
[3]
  binding result: binds
[4]
  fold increase in binding compared to AT1636 wild-type antibody (ratio of ELISA EC50 values): 56.5 fold
[5]
  fold increase in binding compared to AT1636 wild-type antibody (ratio of ELISA EC50 values): 28.4 fold

B3: AT1636-I (antibody, human IgG1, V domains shown)
VH: EVQLVESGGGLVKPGGSLRLSCAASGFIFSNAWMNWVRQAPGKGLEWVGRIKSKIDGGTTEYTTPVKGRFTISRDDSKDTVYLHMKRLKTEDTAVYYCTPGVGANDPYYFDRWGQGVLVTVSS
VL: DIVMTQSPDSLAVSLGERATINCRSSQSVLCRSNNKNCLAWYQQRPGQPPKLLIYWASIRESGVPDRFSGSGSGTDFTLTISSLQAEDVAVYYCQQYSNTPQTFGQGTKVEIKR
notes: also called T29I
[4]
  fold increase in binding compared to AT1636 wild-type antibody (ratio of ELISA EC50 values): 2 fold
[5]
  fold increase in binding compared to AT1636 wild-type antibody (ratio of ELISA EC50 values): 2.6 fold

B4: AT1636-IYEN (antibody, human IgG1, V domains shown)
VH: EVQLVESGGGLVKPGGSLRLSCAASGFIFSYAWMNWVRQAPGKGLEWVGRIKSKIDGETTEYTTPVKGRFTISRDDSKDTVYLHMKRLKTEDTAVYYCTPGVGANNPYYFDRWGQGVLVTVSS
VL: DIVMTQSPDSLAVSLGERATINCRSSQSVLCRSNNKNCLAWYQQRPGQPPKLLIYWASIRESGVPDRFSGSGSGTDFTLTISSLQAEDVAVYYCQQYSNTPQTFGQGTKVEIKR
[3]
  binding result: binds
[4]
  fold increase in binding compared to AT1636 wild-type antibody (ratio of ELISA EC50 values): 28.6 fold
[5]
  fold increase in binding compared to AT1636 wild-type antibody (ratio of ELISA EC50 values): 34.3 fold

B5: AT1636-N (antibody, human IgG1, V domains shown)
VH: EVQLVESGGGLVKPGGSLRLSCAASGFTFSNAWMNWVRQAPGKGLEWVGRIKSKIDGGTTEYTTPVKGRFTISRDDSKDTVYLHMKRLKTEDTAVYYCTPGVGANNPYYFDRWGQGVLVTVSS
VL: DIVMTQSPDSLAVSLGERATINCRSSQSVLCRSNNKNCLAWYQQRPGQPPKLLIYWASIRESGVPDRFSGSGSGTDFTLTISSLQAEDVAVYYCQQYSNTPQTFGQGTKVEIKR
notes: also called D112N
[4]
  fold increase in binding compared to AT1636 wild-type antibody (ratio of ELISA EC50 values): 4.5 fold
[5]
  fold increase in binding compared to AT1636 wild-type antibody (ratio of ELISA EC50 values): 6 fold

B6: AT1636-Y (antibody, human IgG1, V domains shown)
VH: EVQLVESGGGLVKPGGSLRLSCAASGFTFSYAWMNWVRQAPGKGLEWVGRIKSKIDGGTTEYTTPVKGRFTISRDDSKDTVYLHMKRLKTEDTAVYYCTPGVGANDPYYFDRWGQGVLVTVSS
VL: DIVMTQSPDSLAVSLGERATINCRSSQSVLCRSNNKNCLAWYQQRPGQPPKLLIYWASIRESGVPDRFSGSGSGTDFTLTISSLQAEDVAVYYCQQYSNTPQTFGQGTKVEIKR
notes: also called N36Y
[4]
  fold increase in binding compared to AT1636 wild-type antibody (ratio of ELISA EC50 values): 6.6 fold
[5]
  fold increase in binding compared to AT1636 wild-type antibody (ratio of ELISA EC50 values): 6.5 fold

B7: AT1636-IYN (antibody, human IgG1, V domains shown)
VH: EVQLVESGGGLVKPGGSLRLSCAASGFIFSYAWMNWVRQAPGKGLEWVGRIKSKIDGGTTEYTTPVKGRFTISRDDSKDTVYLHMKRLKTEDTAVYYCTPGVGANNPYYFDRWGQGVLVTVSS
VL: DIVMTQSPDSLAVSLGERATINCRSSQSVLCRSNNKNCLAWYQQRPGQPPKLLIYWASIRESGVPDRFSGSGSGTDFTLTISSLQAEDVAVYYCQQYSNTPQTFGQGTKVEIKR
[3]
  binding result: binds
[4]
  fold increase in binding compared to AT1636 wild-type antibody (ratio of ELISA EC50 values): 67.1 fold
[5]
  fold increase in binding compared to AT1636 wild-type antibody (ratio of ELISA EC50 values): 64.3 fold

B8: AT1636-E (antibody, human IgG1, V domains shown)
VH: EVQLVESGGGLVKPGGSLRLSCAASGFTFSNAWMNWVRQAPGKGLEWVGRIKSKIDGETTEYTTPVKGRFTISRDDSKDTVYLHMKRLKTEDTAVYYCTPGVGANDPYYFDRWGQGVLVTVSS
VL: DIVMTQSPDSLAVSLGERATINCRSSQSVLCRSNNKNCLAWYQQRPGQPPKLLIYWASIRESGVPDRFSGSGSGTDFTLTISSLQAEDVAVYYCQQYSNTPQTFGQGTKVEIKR
notes: also called G63E
[4]
  fold increase in binding compared to AT1636 wild-type antibody (ratio of ELISA EC50 values): 0.2 fold
[5]
  fold increase in binding compared to AT1636 wild-type antibody (ratio of ELISA EC50 values): 0.5 fold
